Data published in patent publication US20210255174.

Tests used:
[1] = target: Control peptide #112: [5-Fam]…[DABCYL]-Hex
[2] = target: Control peptide #113: [4-Mu]…[DABCYL]-Hex

| Protein | KM [1] [µM] | KM [2] [µM] |
| --- | --- | --- |
| Proteinase K (protein) AAQTNAPWGLARISSTSPGTSTYYYDESAGQGSCVYVIDTGIEASHPEFEGRAQMVKTYYYSSRDGNGHGTHCAGTVGSRTYGVAKKTQLFGVKVLDDNGSGQYSTIIAGMDFVASDKNNRNCPKGVVASLSLGGGYSSSVNSAAARLQSSGVMVAVAAGNNNADARNYSPASEPSVCTVGASDRYDRRSSFSNYGSVLDIFGPGTSILSTWIGGSTRSISGTSMATPHVAGLAAYLMTLGKTTAASACRYIADTANKGDLSNIPFGTVNLLAYNNYQA | 3.37 | 4.87 |
| Thermolysin (protein) ITGTSTVGVGRGVLGDQKNINTTYSTYYYLQDNTRGNGIFTYDAKYRTTLPGSLWADADNQFFASYDAPAVDAHYYAGVTYDYYKNVHNRLSYDGNNAAIRSSVHYSQGYNNAFWNGSQMVYGDGDGQTFIPLSGGIDVVAHELTHAVTDYTAGLIYQNESGAINEAISDIFGTLVEFYANKNPDWEIGEDVYTPGISGDSLRSMSDPAKYGDPDHYSKRYTGTQDNGGVHINSGIINKAAYLISQGGTHYGVSVVGIGRDKLGKIFYRALTQYLTPTSNFSQLRAAAVQSATDLYGSTSQEVASVKQAFDAVGVK | 3.58 | 6.45 |
